Earlier results, collected in paper PMC3185792.
Read-outs that look alike come from different tables or passages of the source.

What was measured:
ICAM (Homo sapiens) [1] = target: ICAM (Homo sapiens) (UniProt P05362)
ICAM (Homo sapiens) [2] = target: ICAM (Homo sapiens) (UniProt P05362); remark: listed apart in the source

Chain of ICAM (Homo sapiens) (P05362 28-480): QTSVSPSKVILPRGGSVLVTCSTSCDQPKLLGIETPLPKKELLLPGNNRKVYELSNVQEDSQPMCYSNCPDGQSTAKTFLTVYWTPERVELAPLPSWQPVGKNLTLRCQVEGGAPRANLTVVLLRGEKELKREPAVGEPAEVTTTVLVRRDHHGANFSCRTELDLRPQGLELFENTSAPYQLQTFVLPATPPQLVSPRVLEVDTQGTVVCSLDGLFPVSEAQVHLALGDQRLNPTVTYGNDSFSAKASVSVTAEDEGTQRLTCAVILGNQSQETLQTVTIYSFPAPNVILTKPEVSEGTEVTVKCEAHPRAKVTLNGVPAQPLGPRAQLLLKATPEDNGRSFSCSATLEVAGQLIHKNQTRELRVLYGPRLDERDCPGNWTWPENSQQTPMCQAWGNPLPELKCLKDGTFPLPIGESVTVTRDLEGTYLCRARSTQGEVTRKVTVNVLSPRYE
Chain of LFA-1 integrin (closed conformation) (P20701 26-1090): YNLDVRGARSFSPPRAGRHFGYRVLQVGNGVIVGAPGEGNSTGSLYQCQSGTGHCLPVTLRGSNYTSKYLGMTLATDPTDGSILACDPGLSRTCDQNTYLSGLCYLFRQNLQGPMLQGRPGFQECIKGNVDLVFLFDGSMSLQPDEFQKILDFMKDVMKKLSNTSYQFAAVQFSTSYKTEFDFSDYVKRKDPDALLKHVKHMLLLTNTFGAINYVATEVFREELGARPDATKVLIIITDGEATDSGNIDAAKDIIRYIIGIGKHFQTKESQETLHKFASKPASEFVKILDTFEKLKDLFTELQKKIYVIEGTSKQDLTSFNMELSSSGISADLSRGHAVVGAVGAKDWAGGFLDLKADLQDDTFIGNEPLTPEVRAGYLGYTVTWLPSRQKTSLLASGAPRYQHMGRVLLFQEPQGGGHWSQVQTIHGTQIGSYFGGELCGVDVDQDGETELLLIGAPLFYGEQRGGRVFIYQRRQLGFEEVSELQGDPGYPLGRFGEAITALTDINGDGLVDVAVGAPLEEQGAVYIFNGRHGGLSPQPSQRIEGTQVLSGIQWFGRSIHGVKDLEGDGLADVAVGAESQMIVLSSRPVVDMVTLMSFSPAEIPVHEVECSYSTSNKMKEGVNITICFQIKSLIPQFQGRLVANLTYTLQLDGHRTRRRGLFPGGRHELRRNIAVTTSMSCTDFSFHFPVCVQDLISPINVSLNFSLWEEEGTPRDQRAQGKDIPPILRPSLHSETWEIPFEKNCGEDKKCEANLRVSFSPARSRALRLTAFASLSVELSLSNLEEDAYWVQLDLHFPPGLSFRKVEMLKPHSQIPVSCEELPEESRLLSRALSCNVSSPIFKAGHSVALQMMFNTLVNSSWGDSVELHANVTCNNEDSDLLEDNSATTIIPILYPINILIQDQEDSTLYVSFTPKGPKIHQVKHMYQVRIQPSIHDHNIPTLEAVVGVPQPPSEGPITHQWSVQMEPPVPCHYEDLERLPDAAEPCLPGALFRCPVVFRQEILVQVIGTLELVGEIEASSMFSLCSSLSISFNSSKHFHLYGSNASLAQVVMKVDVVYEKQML
Chain of LFA-1 integrin (closed conformation) (P05107 23-700, further chain): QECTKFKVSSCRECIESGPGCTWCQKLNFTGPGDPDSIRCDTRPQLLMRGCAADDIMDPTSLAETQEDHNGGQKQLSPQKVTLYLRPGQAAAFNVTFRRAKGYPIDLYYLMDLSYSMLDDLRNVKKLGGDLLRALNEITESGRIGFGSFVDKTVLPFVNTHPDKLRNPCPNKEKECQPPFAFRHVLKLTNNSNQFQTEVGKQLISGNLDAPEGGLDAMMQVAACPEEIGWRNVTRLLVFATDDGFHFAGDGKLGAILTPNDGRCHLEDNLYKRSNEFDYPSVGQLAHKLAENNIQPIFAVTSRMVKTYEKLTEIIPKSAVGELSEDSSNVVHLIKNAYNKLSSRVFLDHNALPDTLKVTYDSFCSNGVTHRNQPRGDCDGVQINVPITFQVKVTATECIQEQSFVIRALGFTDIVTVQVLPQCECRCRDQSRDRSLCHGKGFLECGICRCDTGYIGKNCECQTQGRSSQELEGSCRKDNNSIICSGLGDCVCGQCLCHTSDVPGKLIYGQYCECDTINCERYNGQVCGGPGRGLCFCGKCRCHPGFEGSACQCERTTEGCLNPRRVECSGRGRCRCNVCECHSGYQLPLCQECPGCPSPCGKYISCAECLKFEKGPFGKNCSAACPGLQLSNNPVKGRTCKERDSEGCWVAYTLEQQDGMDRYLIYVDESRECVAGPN
Chain of LFA-1 integrin (open conformation) (P20701 26-1090): as the sequence (P20701 26-1090) above
Chain of LFA-1 integrin (open conformation) (P05107 23-700, further chain): as the sequence (P05107 23-700, further chain) above

Kd (ICAM (Homo sapiens) [1])	Kd (ICAM (Homo sapiens) [2])	Substance
0.4 µM	–	LFA-1 integrin (open conformation) (from UniProt P20701)
–	100 µM	LFA-1 integrin (closed conformation) (from UniProt P20701)
